Measured values taken from the supplement of paper PMC10126150.
± gives the standard deviation of the averaged measurements.

Test system: ATP
Experiment: switch fluorescence ratio, 500 uM ATP over buffer (Cy3 cluster intensity, sum of 5 cycles each) (fold (ratio)); higher = stronger signal-on switching upon ATP binding; sequences stand for … in TCGTCGGCAGCGTCAGATGTGTATAAGAGACAGTTTTTTTTTTTTTTTTTTTTTTTTT…TC
Conditions: aptamer strand: ATP DNA aptamer (quencher-CACCTGGGGGAGTATTGCGGAGGAAGG + anchor), 100 nM annealed; ATP concentration: 500 uM
Outline: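 Exposure to 500 uM ATP lasted 15 min at 22 °C before imaging, and a selection-buffer image was taken beforehand, for Cy3-labelled switching-strand clusters on a modified Illumina MiSeq flow-cell annealed to 100 nM quencher-labelled ATP aptamer. Five buffer/ATP cycles were run with NaOH stripping and re-annealing between them. The fluorescence ratio per cluster is summed target-cycle over summed buffer-cycle Cy3 intensity, averaged per switch-domain sequence. Clusters outside 100-1000 RFU were excluded.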

| Sequence | switch fluorescence ratio |
| --- | --- |
| TGCTATTAGG | 0.979 ± 0.045 |
| TGCTCAGCTG | 1.04 ± 0.026 |
| TGCTCCTGAT | 1.02 ± 0.055 |
| TGCTCGGTTT | 0.998 ± 0.045 |
| TGCTCTACGG | 1 ± 0.018 |
| TGCTGAAAGA | 1.04 ± 0.028 |
| TGCTGAAATG | 1.03 ± 0.07 |
| TGCTGCTGAG | 0.971 ± 0.016 |
| TGCTGGCCAC | 1.01 ± 0.013 |
| TGCTGGGGTC | 0.977 ± 0.016 |
| TGCTGGGTGG | 1.01 ± 0.02 |
| TGCTGTAACG | 1.02 ± 0.017 |
| TGCTGTAAGG | 1 ± 0.036 |
| TGCTGTAATA | 1.035 ± 0.0031 |
| TGCTGTCTGT | 0.9903 ± 0.0058 |
| TGCTGTTAAT | 0.9829 ± 0.0089 |
| TGCTGTTGGA | 0.953 ± 0.011 |
| TGCTTAAAGT | 0.9807 ± 0.0054 |
| TGCTTAGACT | 1.18 ± 0.27 |
| TGCTTATCTA | 1.016 ± 0.0077 |
| TGCTTATGGG | 0.965 ± 0.016 |
| TGCTTATTGG | 0.9725 ± 0.0081 |
| TGCTTATTTG | 1 ± 0.023 |
| TGCTTCTCGA | 0.991 ± 0.031 |
| TGCTTGCTGT | 0.991 ± 0.01 |

| Sequence | switch fluorescence ratio |
| --- | --- |
| TGCTTGGTTT | 1.02 ± 0.018 |
| TGCTTTACGC | 1.03 ± 0.03 |
| TGCTTTGCCG | 1.09 ± 0.072 |
| TGCTTTTGAT | 1 ± 0.048 |
| TGCTTTTTGT | 1.02 ± 0.046 |
| TGGAAAAATG | 0.991 ± 0.031 |
| TGGAAAAGTT | 0.993 ± 0.017 |
| TGGAAAGCTG | 1.04 ± 0.025 |
| TGGAAAGGAG | 1.02 ± 0.013 |
| TGGAAAGGGT | 1.06 ± 0.035 |
| TGGAAATGCC | 1.07 ± 0.065 |
| TGGAAGCGGG | 1.04 ± 0.07 |
| TGGAAGGGTG | 1.05 ± 0.017 |
| TGGAATATGG | 1.04 ± 0.021 |
| TGGAATGGGG | 1 ± 0.037 |
| TGGAATTTAG | 1.013 ± 0.00072 |
| TGGACCCGAT | 0.978 ± 0.011 |
| TGGACCTTTT | 1.64 ± 0.82 |
| TGGAGAAAGG | 1.13 ± 0.29 |
| TGGAGAAGAT | 0.978 ± 0.03 |
| TGGAGAAGGT | 1.02 ± 0.027 |
| TGGAGAGGTC | 0.999 ± 0.022 |
| TGGAGAGTAG | 1.01 ± 0.032 |
| TGGAGCAGGG | 1.05 ± 0.036 |
| TGGAGCCAGT | 1.01 ± 0.041 |

| Sequence | switch fluorescence ratio |
| --- | --- |
| TGGAGGGAAG | 1.03 ± 0.059 |
| TGGAGGGCTC | 1.01 ± 0.025 |
| TGGAGGGGGG | 0.997 ± 0.086 |
| TGGAGTAGG | 1.01 ± 0.025 |
| TGGAGTAGGG | 0.9874 ± 0.0062 |
| TGGAGTGGGG | 1 ± 0.025 |
| TGGAGTTTGG | 1.15 ± 0.19 |
| TGGATACTTA | 1.02 ± 0.013 |
| TGGATAGCGC | 1.01 ± 0.011 |
| TGGATCACGG | 1.02 ± 0.0054 |
| TGGATCGTAG | 0.978 ± 0.011 |
| TGGATCTCAG | 0.982 ± 0.012 |
| TGGATGAGTG | 0.9822 ± 0.0077 |
| TGGATGGGGA | 0.98 ± 0.028 |
| TGGATGTCAG | 0.992 ± 0.054 |
| TGGATGTGTG | 0.962 ± 0.038 |
| TGGATTATTA | 1.02 ± 0.014 |
| TGGATTGGGG | 0.978 ± 0.059 |
| TGGATTGTCC | 1.03 ± 0.012 |
| TGGATTTAGT | 0.9825 ± 0.0084 |
| TGGCACAGGG | 1.06 ± 0.016 |
| TGGCAGACTC | 1.28 ± 0.013 |
| TGGCAGTCTA | 0.979 ± 0.018 |
| TGGCAGTGGT | 0.993 ± 0.03 |
| TGGCAGTGTG | 1.05 ± 0.019 |

| Sequence | switch fluorescence ratio |
| --- | --- |
| TGGCATAGGT | 1.02 ± 0.03 |
| TGGCATAGTT | 0.995 ± 0.042 |
| TGGCCAGGGT | 1.06 ± 0.031 |
| TGGCCCGGGA | 0.9878 ± 0.0035 |
| TGGCCGGGCG | 1.011 ± 0.0026 |
| TGGCCTAGG | 1 ± 0.029 |
| TGGCGATTGT | 0.986 ± 0.014 |
| TGGCGCCCTT | 1.01 ± 0.012 |
| TGGCGGACAG | 0.99 ± 0.026 |
| TGGCGGTGCT | 0.997 ± 0.028 |
| TGGCGTGTTA | 1.02 ± 0.044 |
| TGGCTAAAAT | 0.998 ± 0.023 |
| TGGCTAAGGT | 1.023 ± 0.0017 |
| TGGCTCATAC | 1.45 ± 0.041 |
| TGGCTCGGGG | 1.03 ± 0.051 |
| TGGCTGGGTA | 0.983 ± 0.043 |
| TGGCTTAAAC | 1.18 ± 0.28 |
| TGGCTTACAG | 1.003 ± 0.0022 |
| TGGCTTGGCG | 1.01 ± 0.072 |
| TGGGAAAAAG | 0.972 ± 0.039 |
| TGGGAAAGCA | 1 ± 0.012 |
| TGGGAAATCT | 1.17 ± 0.25 |
| TGGGAACCGT | 1.18 ± 0.32 |
| TGGGAAGACA | 1.06 ± 0.092 |
| TGGGAAGATT | 1.028 ± 0.0041 |
